From article PMC5550493, “The Conserved Lysine-265 Allosterically Modulates Nucleotide- and Actin-binding Site Coupling in Myosin-2” (Scientific Reports, 2017)

Experiments:
[1] = biological target: F-actin (rabbit skeletal muscle actin) (rabbit, UniProt P68135 1-377); test: cell-based or functional assay
[2] = biological target: Pyrene-labelled F-actin (rabbit skeletal muscle actin) (rabbit, UniProt P68135 1-377, pyrene label); test: other fluorescence titration; stopped-flow, pyrene-actin fluorescence; k+A from the slope of observed rate constants against actin concentration; k-A by chasing pyrene-actin from the complex with a large excess of unlabelled F-actin; KA calculated as k-A/k+A; 25 mM MOPS, 100 mM KCl, 5 mM MgCl2, 1 mM DTT, pH 7.0, 20 °C; details: both partners purified

B1: Dd myosin-2 M765-2R wild type (Dd myosin-2 motor domain fused to two Dd α-actinin repeats) (other)
chain: MNPIHDRTSDYHKYLKVKQGDSDLFKLTVSDKRYIWYNPDPKERDSYECGEIVSETSDSFTFKTVDGQDRQVKKDDANQRNPIKFDGVEDMSELSYLNEPAVFHNLRVRYNQDLIYTYSGLFLVAVNPFKRIPIYTQEMVDIFKGRRRNEVAPHIFAISDVAYRSMLDDRQNQSLLITGESGAGKTENTKKVIQYLASVAGRNQANGSGVLEQQILQANPILEAFGNAKTTRNNNSSRFGKFIEIQFNSAGFISGASIQSYLLEKSRVVFQSETERNYHIFYQLLAGATAEEKKALHLAGPESFNYLNQSGCVDIKGVSDSEEFKITRQAMDIVGFSQEEQMSIFKIIAGILHLGNIKFEKGAGEGAVLKDKTALNAASTVFGVNPSVLEKALMEPRILAGRDLVAQHLNVEKSSSSRDALVKALYGRLFLWLVKKINNVLCQERKAYFIGVLDISGFEIFKVNSFEQLCINYTNEKLQQFFNHHMFKLEQEEYLKEKINWTFIDFGLDSQATIDLIDGRQPPGILALLDEQSVFPNATDNTLITKLHSHFSKKNAKYEEPRFSKTEFGVTHYAGQVMYEIQDWLEKNKDPLQQDLELCFKDSSDNVVTKLFNDPNIASRAKKGANFITVAAQYKEQLASLMATLETTNPHFVRCIIPNNKQLPAKLEDKVVLDQLRCNGVLEGIRITRKGFPNRIIYADFVKRYYLLAPNVPRDAEDSQKATDAVLKHLNIDPEQYRFGITKIFFRAGQLARIEEAREQRISEILEQTKSDYLKRANELVQWINDKQASLESRDFGDSIESVQSFMNAHKEYKKTEKPPKGQEVSELEAIYNSLQTKLRLIKREPFVAPAGLTPNEIDSTWSALEKAEQEHAEALRIELKRQKKIAVLLQKYNRILKKLENWATTKSVYLGSNETGDSITAVQAKLKNLEAFDGECQSLEGQSNSDLLSILAQLTELNYNGVPELTERKDTFFAQQWTGVKSSAETYKNTLLAELERLQKIEDSLV
notes: Dictyostelium discoideum myosin-2 heavy chain (mhcA gene), first 765 residues (motor domain); Dictyostelium discoideum α-actinin, codon 264 to 505 (two α-actinin repeats, artificial lever arm); Expression vector based on pDXA-3H; also called WT; M765-2R WT; source: Dictyostelium discoideum AX3-Orf+ cells, purified (Ni-NTA)
k cat/K app, calculated from k cat and K app of the actin-activated steady-state ATPase [1]: 30000 M⁻¹ s⁻¹
Kd [2]: 3.6 nM
koff [2]: 0.0049 s⁻¹
kon [2]: 1.37e+06 M⁻¹ s⁻¹

B2: Dd myosin-2 M765-2R K265A (other)
chain: MNPIHDRTSDYHKYLKVKQGDSDLFKLTVSDKRYIWYNPDPKERDSYECGEIVSETSDSFTFKTVDGQDRQVKKDDANQRNPIKFDGVEDMSELSYLNEPAVFHNLRVRYNQDLIYTYSGLFLVAVNPFKRIPIYTQEMVDIFKGRRRNEVAPHIFAISDVAYRSMLDDRQNQSLLITGESGAGKTENTKKVIQYLASVAGRNQANGSGVLEQQILQANPILEAFGNAKTTRNNNSSRFGKFIEIQFNSAGFISGASIQSYLLEASRVVFQSETERNYHIFYQLLAGATAEEKKALHLAGPESFNYLNQSGCVDIKGVSDSEEFKITRQAMDIVGFSQEEQMSIFKIIAGILHLGNIKFEKGAGEGAVLKDKTALNAASTVFGVNPSVLEKALMEPRILAGRDLVAQHLNVEKSSSSRDALVKALYGRLFLWLVKKINNVLCQERKAYFIGVLDISGFEIFKVNSFEQLCINYTNEKLQQFFNHHMFKLEQEEYLKEKINWTFIDFGLDSQATIDLIDGRQPPGILALLDEQSVFPNATDNTLITKLHSHFSKKNAKYEEPRFSKTEFGVTHYAGQVMYEIQDWLEKNKDPLQQDLELCFKDSSDNVVTKLFNDPNIASRAKKGANFITVAAQYKEQLASLMATLETTNPHFVRCIIPNNKQLPAKLEDKVVLDQLRCNGVLEGIRITRKGFPNRIIYADFVKRYYLLAPNVPRDAEDSQKATDAVLKHLNIDPEQYRFGITKIFFRAGQLARIEEAREQRISEILEQTKSDYLKRANELVQWINDKQASLESRDFGDSIESVQSFMNAHKEYKKTEKPPKGQEVSELEAIYNSLQTKLRLIKREPFVAPAGLTPNEIDSTWSALEKAEQEHAEALRIELKRQKKIAVLLQKYNRILKKLENWATTKSVYLGSNETGDSITAVQAKLKNLEAFDGECQSLEGQSNSDLLSILAQLTELNYNGVPELTERKDTFFAQQWTGVKSSAETYKNTLLAELERLQKIEDSLV
notes: Dictyostelium discoideum myosin-2 heavy chain (mhcA gene), first 765 residues (motor domain), with K265A; Dictyostelium discoideum α-actinin, codon 264 to 505 (two α-actinin repeats, artificial lever arm); Point mutant of the fusion construct m1; source: Dictyostelium discoideum AX3-Orf+ cells, purified (Ni-NTA)
k cat/K app, calculated from k cat and K app of the actin-activated steady-state ATPase [1]: 20000 M⁻¹ s⁻¹
Kd [2]: 7.5 nM
koff [2]: 0.0104 s⁻¹
kon [2]: 1.38e+06 M⁻¹ s⁻¹

B3: Dd myosin-2 M765-2R K265E (other)
chain: MNPIHDRTSDYHKYLKVKQGDSDLFKLTVSDKRYIWYNPDPKERDSYECGEIVSETSDSFTFKTVDGQDRQVKKDDANQRNPIKFDGVEDMSELSYLNEPAVFHNLRVRYNQDLIYTYSGLFLVAVNPFKRIPIYTQEMVDIFKGRRRNEVAPHIFAISDVAYRSMLDDRQNQSLLITGESGAGKTENTKKVIQYLASVAGRNQANGSGVLEQQILQANPILEAFGNAKTTRNNNSSRFGKFIEIQFNSAGFISGASIQSYLLEESRVVFQSETERNYHIFYQLLAGATAEEKKALHLAGPESFNYLNQSGCVDIKGVSDSEEFKITRQAMDIVGFSQEEQMSIFKIIAGILHLGNIKFEKGAGEGAVLKDKTALNAASTVFGVNPSVLEKALMEPRILAGRDLVAQHLNVEKSSSSRDALVKALYGRLFLWLVKKINNVLCQERKAYFIGVLDISGFEIFKVNSFEQLCINYTNEKLQQFFNHHMFKLEQEEYLKEKINWTFIDFGLDSQATIDLIDGRQPPGILALLDEQSVFPNATDNTLITKLHSHFSKKNAKYEEPRFSKTEFGVTHYAGQVMYEIQDWLEKNKDPLQQDLELCFKDSSDNVVTKLFNDPNIASRAKKGANFITVAAQYKEQLASLMATLETTNPHFVRCIIPNNKQLPAKLEDKVVLDQLRCNGVLEGIRITRKGFPNRIIYADFVKRYYLLAPNVPRDAEDSQKATDAVLKHLNIDPEQYRFGITKIFFRAGQLARIEEAREQRISEILEQTKSDYLKRANELVQWINDKQASLESRDFGDSIESVQSFMNAHKEYKKTEKPPKGQEVSELEAIYNSLQTKLRLIKREPFVAPAGLTPNEIDSTWSALEKAEQEHAEALRIELKRQKKIAVLLQKYNRILKKLENWATTKSVYLGSNETGDSITAVQAKLKNLEAFDGECQSLEGQSNSDLLSILAQLTELNYNGVPELTERKDTFFAQQWTGVKSSAETYKNTLLAELERLQKIEDSLV
notes: Dictyostelium discoideum myosin-2 heavy chain (mhcA gene), first 765 residues (motor domain), with K265E; Dictyostelium discoideum α-actinin, codon 264 to 505 (two α-actinin repeats, artificial lever arm); Point mutant of the fusion construct m1; source: Dictyostelium discoideum AX3-Orf+ cells, purified (Ni-NTA)
k cat/K app, calculated from k cat and K app of the actin-activated steady-state ATPase [1]: 15000 M⁻¹ s⁻¹
Kd [2]: 10.1 nM
koff [2]: 0.0113 s⁻¹
kon [2]: 1.11e+06 M⁻¹ s⁻¹

B4: Dd myosin-2 M765-2R K265Q (other)
chain: MNPIHDRTSDYHKYLKVKQGDSDLFKLTVSDKRYIWYNPDPKERDSYECGEIVSETSDSFTFKTVDGQDRQVKKDDANQRNPIKFDGVEDMSELSYLNEPAVFHNLRVRYNQDLIYTYSGLFLVAVNPFKRIPIYTQEMVDIFKGRRRNEVAPHIFAISDVAYRSMLDDRQNQSLLITGESGAGKTENTKKVIQYLASVAGRNQANGSGVLEQQILQANPILEAFGNAKTTRNNNSSRFGKFIEIQFNSAGFISGASIQSYLLEQSRVVFQSETERNYHIFYQLLAGATAEEKKALHLAGPESFNYLNQSGCVDIKGVSDSEEFKITRQAMDIVGFSQEEQMSIFKIIAGILHLGNIKFEKGAGEGAVLKDKTALNAASTVFGVNPSVLEKALMEPRILAGRDLVAQHLNVEKSSSSRDALVKALYGRLFLWLVKKINNVLCQERKAYFIGVLDISGFEIFKVNSFEQLCINYTNEKLQQFFNHHMFKLEQEEYLKEKINWTFIDFGLDSQATIDLIDGRQPPGILALLDEQSVFPNATDNTLITKLHSHFSKKNAKYEEPRFSKTEFGVTHYAGQVMYEIQDWLEKNKDPLQQDLELCFKDSSDNVVTKLFNDPNIASRAKKGANFITVAAQYKEQLASLMATLETTNPHFVRCIIPNNKQLPAKLEDKVVLDQLRCNGVLEGIRITRKGFPNRIIYADFVKRYYLLAPNVPRDAEDSQKATDAVLKHLNIDPEQYRFGITKIFFRAGQLARIEEAREQRISEILEQTKSDYLKRANELVQWINDKQASLESRDFGDSIESVQSFMNAHKEYKKTEKPPKGQEVSELEAIYNSLQTKLRLIKREPFVAPAGLTPNEIDSTWSALEKAEQEHAEALRIELKRQKKIAVLLQKYNRILKKLENWATTKSVYLGSNETGDSITAVQAKLKNLEAFDGECQSLEGQSNSDLLSILAQLTELNYNGVPELTERKDTFFAQQWTGVKSSAETYKNTLLAELERLQKIEDSLV
notes: Dictyostelium discoideum myosin-2 heavy chain (mhcA gene), first 765 residues (motor domain), with K265Q; Dictyostelium discoideum α-actinin, codon 264 to 505 (two α-actinin repeats, artificial lever arm); Point mutant of the fusion construct m1; source: Dictyostelium discoideum AX3-Orf+ cells, purified (Ni-NTA)
k cat/K app, calculated from k cat and K app of the actin-activated steady-state ATPase [1]: 19000 M⁻¹ s⁻¹
Kd [2]: 7.6 nM
koff [2]: 0.0078 s⁻¹
kon [2]: 1.02e+06 M⁻¹ s⁻¹
